Reference: PMC12804668

Target: Ec78 PtuA ATPase (E. coli ECONIH5)
Assay: cryo-EM structure

stoichiometry N: 4
Substance: Ec78 PtuA ATPase (enzyme)
